Biological target: ribosomes isolated from wildtype CHO cells (hamster (endogenous in CHO))

## GCN2, StrepII-tagged, purified from Sf9 cells (from UniProt Q9P2K8 1-1649) (enzyme)
  rate of phosphorylation of eIF2α (2 µM) by GCN2 in vitro, with wildtype ribosomes against none: 10 fold
